Values of other authors in article PMC5576018.

Molecular target: CSL (Homo sapiens) (UniProt Q06330)
Chain of UniProt Q06330 (Q06330 whole entry): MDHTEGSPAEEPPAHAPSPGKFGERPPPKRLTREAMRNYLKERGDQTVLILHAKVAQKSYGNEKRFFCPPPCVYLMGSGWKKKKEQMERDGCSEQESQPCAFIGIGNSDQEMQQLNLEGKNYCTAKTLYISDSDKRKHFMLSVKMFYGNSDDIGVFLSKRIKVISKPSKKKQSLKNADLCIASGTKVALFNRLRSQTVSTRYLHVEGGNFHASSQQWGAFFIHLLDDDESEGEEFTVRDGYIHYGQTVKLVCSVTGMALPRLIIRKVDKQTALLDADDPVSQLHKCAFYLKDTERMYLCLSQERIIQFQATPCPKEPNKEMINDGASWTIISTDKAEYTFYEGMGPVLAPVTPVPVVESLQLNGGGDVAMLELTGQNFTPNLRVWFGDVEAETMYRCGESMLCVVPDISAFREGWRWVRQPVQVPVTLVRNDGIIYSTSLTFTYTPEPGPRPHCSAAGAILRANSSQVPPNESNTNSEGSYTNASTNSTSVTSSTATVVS

Kd: 22 nM
Substance: Notch RAM RAM (from UniProt P46531)
